Measurements from patent US20260167699A1 (Chugai, published 2026).

T1: FcγRIIa(R) extracellular domain with C-terminal His tag (human, UniProt P12318 34-217)
T1 construct: extracellular domain; R131 allotype; also called 2aR; CD32
T1 sequence: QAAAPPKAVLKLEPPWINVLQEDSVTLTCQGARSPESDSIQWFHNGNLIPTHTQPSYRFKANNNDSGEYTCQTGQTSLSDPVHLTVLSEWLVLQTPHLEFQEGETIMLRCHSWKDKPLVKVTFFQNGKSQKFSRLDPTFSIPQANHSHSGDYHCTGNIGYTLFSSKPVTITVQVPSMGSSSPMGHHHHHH

T2: FcγRIIa(H) extracellular domain with C-terminal His tag (human, UniProt P12318 34-217)
T2 construct: extracellular domain; H131 allotype; also called 2aH; CD32
T2 sequence: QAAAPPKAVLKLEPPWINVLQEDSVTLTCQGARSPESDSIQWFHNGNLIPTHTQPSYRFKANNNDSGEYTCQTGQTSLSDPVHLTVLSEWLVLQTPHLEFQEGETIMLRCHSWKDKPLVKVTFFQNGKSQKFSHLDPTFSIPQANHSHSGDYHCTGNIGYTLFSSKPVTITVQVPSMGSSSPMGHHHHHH

T3: FcγRIIb extracellular domain with C-terminal His tag (human, UniProt P31994 43-217)
T3 construct: extracellular domain; also called 2b; CD32
T3 sequence: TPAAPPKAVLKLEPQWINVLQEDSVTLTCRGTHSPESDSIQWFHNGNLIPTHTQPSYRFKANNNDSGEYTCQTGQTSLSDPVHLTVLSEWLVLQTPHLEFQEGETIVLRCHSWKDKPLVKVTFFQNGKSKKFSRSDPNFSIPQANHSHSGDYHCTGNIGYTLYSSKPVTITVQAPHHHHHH

B1: GpH7-A5/GpH7-B3 variant E333_08L/GpL16-k0 (antibody, human IgG1, kappa)
heavy 1: not shown
heavy 2: not shown
light: DIVMTQSPLSLPVTPGEPASISCQASESLVHSNRNTYLHWYLQKPGQSPQLLIYKVSNRFSGVPDRFSGSGSGTDFTLKISRVEAEDVGVYYCSQNTHVPPTFGQGTKVEIERTVAAPSVFIFPPSDEQLKSGTASVVCLLNNFYPREAKVQWKVDNALQSGNSQESVTEQDSKDSTYSLSSTLTLSKADYEKHKVYACEVTHQGLSSPVTKSFNRGEC
notes: heterodimerized IgG1 (He Ab), mutation in one H chain only; also called He Ab
B2: GpH7-A5/GpH7-B3 variant I332_01G/GpL16-k0 (antibody, human IgG1, kappa)
heavy 1: not shown
heavy 2: not shown
light: DIVMTQSPLSLPVTPGEPASISCQASESLVHSNRNTYLHWYLQKPGQSPQLLIYKVSNRFSGVPDRFSGSGSGTDFTLKISRVEAEDVGVYYCSQNTHVPPTFGQGTKVEIERTVAAPSVFIFPPSDEQLKSGTASVVCLLNNFYPREAKVQWKVDNALQSGNSQESVTEQDSKDSTYSLSSTLTLSKADYEKHKVYACEVTHQGLSSPVTKSFNRGEC
notes: as for B1
B3: GpH7-A5/GpH7-B3 variant E333_16H/GpL16-k0 (antibody, human IgG1, kappa)
heavy 1: not shown
heavy 2: not shown
light: DIVMTQSPLSLPVTPGEPASISCQASESLVHSNRNTYLHWYLQKPGQSPQLLIYKVSNRFSGVPDRFSGSGSGTDFTLKISRVEAEDVGVYYCSQNTHVPPTFGQGTKVEIERTVAAPSVFIFPPSDEQLKSGTASVVCLLNNFYPREAKVQWKVDNALQSGNSQESVTEQDSKDSTYSLSSTLTLSKADYEKHKVYACEVTHQGLSSPVTKSFNRGEC
notes: as for B1
B4: GpH7-A5/GpH7-B3 variant E333_12R/GpL16-k0 (antibody, human IgG1, kappa)
heavy 1: not shown
heavy 2: not shown
light: DIVMTQSPLSLPVTPGEPASISCQASESLVHSNRNTYLHWYLQKPGQSPQLLIYKVSNRFSGVPDRFSGSGSGTDFTLKISRVEAEDVGVYYCSQNTHVPPTFGQGTKVEIERTVAAPSVFIFPPSDEQLKSGTASVVCLLNNFYPREAKVQWKVDNALQSGNSQESVTEQDSKDSTYSLSSTLTLSKADYEKHKVYACEVTHQGLSSPVTKSFNRGEC
notes: as for B1
B5: GpH7-A5/GpH7-B3 variant E333_14T/GpL16-k0 (antibody, human IgG1, kappa)
heavy 1: not shown
heavy 2: not shown
light: DIVMTQSPLSLPVTPGEPASISCQASESLVHSNRNTYLHWYLQKPGQSPQLLIYKVSNRFSGVPDRFSGSGSGTDFTLKISRVEAEDVGVYYCSQNTHVPPTFGQGTKVEIERTVAAPSVFIFPPSDEQLKSGTASVVCLLNNFYPREAKVQWKVDNALQSGNSQESVTEQDSKDSTYSLSSTLTLSKADYEKHKVYACEVTHQGLSSPVTKSFNRGEC
notes: as for B1
B6: GpH7-A5/GpH7-B3 variant E333_15Y/GpL16-k0 (antibody, human IgG1, kappa)
heavy 1: not shown
heavy 2: not shown
light: DIVMTQSPLSLPVTPGEPASISCQASESLVHSNRNTYLHWYLQKPGQSPQLLIYKVSNRFSGVPDRFSGSGSGTDFTLKISRVEAEDVGVYYCSQNTHVPPTFGQGTKVEIERTVAAPSVFIFPPSDEQLKSGTASVVCLLNNFYPREAKVQWKVDNALQSGNSQESVTEQDSKDSTYSLSSTLTLSKADYEKHKVYACEVTHQGLSSPVTKSFNRGEC
notes: as for B1
B7: GpH7-A5/GpH7-B3 variant E333_19Q/GpL16-k0 (antibody, human IgG1, kappa)
heavy 1: not shown
heavy 2: not shown
light: DIVMTQSPLSLPVTPGEPASISCQASESLVHSNRNTYLHWYLQKPGQSPQLLIYKVSNRFSGVPDRFSGSGSGTDFTLKISRVEAEDVGVYYCSQNTHVPPTFGQGTKVEIERTVAAPSVFIFPPSDEQLKSGTASVVCLLNNFYPREAKVQWKVDNALQSGNSQESVTEQDSKDSTYSLSSTLTLSKADYEKHKVYACEVTHQGLSSPVTKSFNRGEC
notes: as for B1
B8: GpH7-A5/GpH7-B3 variant E333_13S/GpL16-k0 (antibody, human IgG1, kappa)
heavy 1: not shown
heavy 2: not shown
light: DIVMTQSPLSLPVTPGEPASISCQASESLVHSNRNTYLHWYLQKPGQSPQLLIYKVSNRFSGVPDRFSGSGSGTDFTLKISRVEAEDVGVYYCSQNTHVPPTFGQGTKVEIERTVAAPSVFIFPPSDEQLKSGTASVVCLLNNFYPREAKVQWKVDNALQSGNSQESVTEQDSKDSTYSLSSTLTLSKADYEKHKVYACEVTHQGLSSPVTKSFNRGEC
notes: as for B1
B9: GpH7-A5/GpH7-B3 variant E333_18N/GpL16-k0 (antibody, human IgG1, kappa)
heavy 1: not shown
heavy 2: not shown
light: DIVMTQSPLSLPVTPGEPASISCQASESLVHSNRNTYLHWYLQKPGQSPQLLIYKVSNRFSGVPDRFSGSGSGTDFTLKISRVEAEDVGVYYCSQNTHVPPTFGQGTKVEIERTVAAPSVFIFPPSDEQLKSGTASVVCLLNNFYPREAKVQWKVDNALQSGNSQESVTEQDSKDSTYSLSSTLTLSKADYEKHKVYACEVTHQGLSSPVTKSFNRGEC
notes: as for B1
B10: GpH7-A5/GpH7-B3 variant I332_02A/GpL16-k0 (antibody, human IgG1, kappa)
heavy 1: not shown
heavy 2: not shown
light: DIVMTQSPLSLPVTPGEPASISCQASESLVHSNRNTYLHWYLQKPGQSPQLLIYKVSNRFSGVPDRFSGSGSGTDFTLKISRVEAEDVGVYYCSQNTHVPPTFGQGTKVEIERTVAAPSVFIFPPSDEQLKSGTASVVCLLNNFYPREAKVQWKVDNALQSGNSQESVTEQDSKDSTYSLSSTLTLSKADYEKHKVYACEVTHQGLSSPVTKSFNRGEC
notes: as for B1
B11: GpH7-A5/GpH7-B3 variant E333_20W/GpL16-k0 (antibody, human IgG1, kappa)
heavy 1: not shown
heavy 2: not shown
light: DIVMTQSPLSLPVTPGEPASISCQASESLVHSNRNTYLHWYLQKPGQSPQLLIYKVSNRFSGVPDRFSGSGSGTDFTLKISRVEAEDVGVYYCSQNTHVPPTFGQGTKVEIERTVAAPSVFIFPPSDEQLKSGTASVVCLLNNFYPREAKVQWKVDNALQSGNSQESVTEQDSKDSTYSLSSTLTLSKADYEKHKVYACEVTHQGLSSPVTKSFNRGEC
notes: as for B1
B12: GpH7-A5/GpH7-B3 variant E333_11K/GpL16-k0 (antibody, human IgG1, kappa)
heavy 1: not shown
heavy 2: not shown
light: DIVMTQSPLSLPVTPGEPASISCQASESLVHSNRNTYLHWYLQKPGQSPQLLIYKVSNRFSGVPDRFSGSGSGTDFTLKISRVEAEDVGVYYCSQNTHVPPTFGQGTKVEIERTVAAPSVFIFPPSDEQLKSGTASVVCLLNNFYPREAKVQWKVDNALQSGNSQESVTEQDSKDSTYSLSSTLTLSKADYEKHKVYACEVTHQGLSSPVTKSFNRGEC
notes: as for B1
B13: GpH7-A5/GpH7-B3 variant E333_09D/GpL16-k0 (antibody, human IgG1, kappa)
heavy 1: not shown
heavy 2: not shown
light: DIVMTQSPLSLPVTPGEPASISCQASESLVHSNRNTYLHWYLQKPGQSPQLLIYKVSNRFSGVPDRFSGSGSGTDFTLKISRVEAEDVGVYYCSQNTHVPPTFGQGTKVEIERTVAAPSVFIFPPSDEQLKSGTASVVCLLNNFYPREAKVQWKVDNALQSGNSQESVTEQDSKDSTYSLSSTLTLSKADYEKHKVYACEVTHQGLSSPVTKSFNRGEC
notes: as for B1

Key:
Assay in all cases: SPR; % of GpH7-A5/GpH7-B3/GpL16-k0
[1] = molecular target: T4, FcγRIa extracellular domain with C-terminal His tag (human, UniProt P12314 16-292)
T4 construct: extracellular domain; also called 1a; CD64

[2] = molecular target: T1, FcγRIIa(R) extracellular domain with …
[3] = molecular target: T2, FcγRIIa(H) extracellular domain with …
[4] = molecular target: T3, FcγRIIb extracellular domain with …
[5] = molecular target: T5, FcγRIIIa extracellular domain with C-terminal His tag (human, UniProt P08637 17-208)
T5 construct: extracellular domain; also called 3a; CD16
T5 sequence (P08637 other isoform, or with tags, fused parts or gaps): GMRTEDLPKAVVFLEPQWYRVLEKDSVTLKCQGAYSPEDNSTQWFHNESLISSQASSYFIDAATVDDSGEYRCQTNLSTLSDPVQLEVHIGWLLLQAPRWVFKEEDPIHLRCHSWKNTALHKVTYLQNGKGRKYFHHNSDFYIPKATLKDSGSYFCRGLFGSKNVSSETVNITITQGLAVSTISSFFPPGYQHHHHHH

T4 sequence (P12314 other isoform, or with tags, fused parts or gaps): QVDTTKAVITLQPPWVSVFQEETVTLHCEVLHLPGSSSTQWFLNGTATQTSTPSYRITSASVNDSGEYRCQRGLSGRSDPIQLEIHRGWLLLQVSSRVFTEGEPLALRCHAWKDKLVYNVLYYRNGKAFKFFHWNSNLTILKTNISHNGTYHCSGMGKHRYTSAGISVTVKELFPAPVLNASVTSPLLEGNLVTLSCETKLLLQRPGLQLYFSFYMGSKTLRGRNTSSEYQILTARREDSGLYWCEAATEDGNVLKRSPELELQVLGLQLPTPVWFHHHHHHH

Binder | He/Con 1a [1] [%] | He/Con 2aR [2] [%] | He/Con 2aH [3] [%] | He/Con 2b [4] [%] | He/Con 3a [5] [%]
B1 | 96.8 | 140 | 116 | 123 | 102
B2 | 102 | 92.2 | 102 | 96.6 | 101
B3 | 95.4 | 119 | 114 | 108 | 106
B4 | 96.7 | 127 | 110 | 104 | 92.2
B5 | 96.7 | 135 | 115 | 111 | 100
B6 | 95.8 | 137 | 114 | 122 | 101
B7 | 93.7 | 130 | 113 | 110 | 101
B8 | 97.6 | 125 | 115 | 106 | 106
B9 | 91.4 | 118 | 110 | 98.2 | 76.2
B10 | 100 | 96.9 | 115 | 114 | 103
B11 | 93.9 | 132 | 106 | 116 | 104
B12 | 96.6 | 128 | 112 | 104 | 97.7
B13 | 98 | 141 | 119 | 122 | 115
